Assay: protease stability score; higher = more stable; yeast display proteolysis, trypsin and chymotrypsin;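 also: relative to predicted unfolded state with 0 unfolded-like and 1 meaning tenfold more protease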

| Sequence | protease stability score |
| --- | --- |
| DLDQELREKTIRIELKAWRTGDEDKIKELLDPNTRFIINGRHLIGREAIHILLEQIDHFKDLQPRHVDVINGVVRFDGHMEGTFNGVDQSTKVHIIAWKYNGRWFIESIIII | 1.59 |
| DLEHEITRRVLWELTESSKTGDFDRRLELLDPHARVNIDGKDFHGREEVEYLLREMEKFWGHDRVYLDVKEIEIQGDKIDVDSELTINGKKRKARLIVVKVNGRWVIHSIEVE | 1.04 |
| DLYKHWTDVLLHLFLHVSRTGDEEEVVRLMDPNTLIIINGQEIHGREEIKRTFREMRVDDERLKDMDKIGNKVRVDGEVRITVDGQERTSRAHMVVLKVDGRWTIHSLRIE | 1.77 |
| DNDQEKIKELARLAEQVMQTGNEKLLRELFDPHARIDIDGKTLHGWKDLLEFTRHELERIDHVVFTVRRVDLQGDKVRVETEVNIDINGKKMTLETTLLIDKFDGRWFLRTIEWE | 1.8 |
| DNEDKLAEQMLKEILELWHTGDEEKWSNLADPNTRIHINGQESHGRDNFHKFWEDFHSTLGIDVLKFSLKDFRIQGDKSRVDVETKVKQGDKSEHYRTFLIFIIVDGRVKTIEIRIK | 0.703 |
| DNEEKDNKTATKLLLDWLRTGDEESMSRNADPNTRLEIGDKEFHGREEVLRHLHELKRHFGIERFEVDIERVEIYGDKVVIHSRMNVNGQRREVIFIDRKIDGRWIFKSIELR | 1.13 |
| DNEERYMIKLLHMLWLAFLTGDEELWYKLADPHVRWTFENREIHGREQFVKEQRRIKNMRIEMELKDVRVQGDKIHTDGHLEINQGDKHIHTDVRLHLVVINGRLHEFHVTLV | 1.54 |
| DNESHLAEEWFRWFIDWMQTGNEEETRKFADPNVRFDINGVEIHGMKLYEDHIKHLGFRQDIRIRHIDTYDGQVDVDTEVRINVNGVEIRHKTRTNLIMIDGKLKTLTVKLE | 1.01 |
| DNKEKLMNKAFEWILELIITGDEDTLHELADPNARNHYGEFHHVGREETTRFLVEFNRRLGVDHVRFERMRVIDGKVHLHIEINVDGRRFESDLIFFKVDGRWKLNFVHFRHV | 1.27 |
| DNTEENTRTLLELLKRVWRTGDWSQLDKLLDPNARAEINGVELHGREKVVEVFREELERLGVEYTDSRVKDMKVQGDKAIIDLELETEQGDKTHMHDLHIETRKVDGRWFVEHIIVH | 1.75 |
| DPREIALKLLLQIMQELEETGDFREEEKYVDPHMRIKIDGVIYHGRSAIEHEYRRFDHIHEIELKRFHVQGDKITLEGYIRGNFDGKEHNTRSILLAKKVNGRWVLTEVTWL | 0.801 |
| DQDDHMAKEFHKLFFDAIRTGDEDLLSMLLDPHVLMNIGNFHRHGRELVVDMQRHLYEKHGFRIHNAHVERWHIFENRLIYHLKVDGKVDGKRHVMEFDLTILKVDGVWIITSITIK | 1.44 |
| DQDEEIMRRLLKTILESWVTGDEDELRRRADPDARSDINGRKHHGRDRVVKRMHDWLRELGIDHLHIEHERIIGEKAHFDTRVHVNGKTFEMFLHFEIIDGRVRSMHVEIR | 0.654 |
| DQEEHEFYNVLRLFMFTLMTGDEHTLKKLLDPNARIEINGQERHGREEILHHMNRNLHEIRMKTLEVKRESVYGNYAHADTRLRGEVNGRESIVTVHIYIQVINGRIEHVHLDIK | 1.45 |
| DQEEQDIRRAIRLYLELLLTGDWKTLEKLIDPNVRLNFNGQEYHGMRDVLRLLKEILEELGIKHVHLHDERIQGDKVKVDTRVEINGKHSEVILVAEKINGKWVVHHLEHNHK | 1.24 |
| DQEERDSKHALRFMEHVISTGDEHLIEELLDPHARLDINGVDVHGREEVKRTITEHRKRYKNLRIHVTDLEVVNGVVRLHTELNIGDKRFEVRWFLDKIDGRWLMTEIRIR | 1.12 |
| DQEEREDRKILKLLVELWRTGNEEVLEHLLDPNVKMRLEFEGREDSAHGRESMIEMLRRVWKVLGIKHERLESVHVFDGVVIITMRLSVDGREQDIQLLFFVYDGRIKSIVIRVRDR | 1.45 |
| DQEERIAHKVAEFFLHALLTGDERLLTEYFDPHVRIIIHINGVEIRYHGREEWVEWLRDILRRFDVVRFHIRDIRNIGNKSIVHSEHREHVNGKSRSTRTELLIDVVDGRIHEVEIRIE | 1.44 |
| DQEHEDARNVLHLLIRSWRTGDEHTSEHLMDPDVKIIYNGRVHVGREDAHRFVEEARVHHIVLHDSRVQGDYIRLDIRVEGEINGRRDRTEVDMVVLKINGRWMIQSIKFK | 1.38 |
| DQEHRDLHKLAHLILEYLVTGDFEMFEHLADPNVKVNINGKEMHGMERMREHLELIWKELRIHHLHITEVTIQGNKVEIDGRWDGKVNGQHRIEERHFYLVTVNGRIRHISEEIV | 1.37 |
| DQHERELEHAMEMLEKILKTGDERLFEHYADPHIRLEIEINGRRIDDHGRDLVLHLWRKMGADHMNIRSIDIQGDKLILNSTIEFNGQIHRSRFISLKVNGRWFIESVRLQDT | 0.907 |
| DQKKELIKKVHEHLFEDLITGDEKKLLSLADPNMRSDINGREIHGMEETSRILLELNRHWGVDRVEVHEHDMKIQGDKAIIHGTLKFNGVETTVELVILKINGVWLLKEVHFR | 0.76 |
| DQLDKSMKESMTRALEHWETGNERSLENLLDPNTKVVVNGVIVHGWERMSELIHDFWRRLGIDHVEIEDIHNHIQGDKAVLNNKTVINVNGQEIKTTLIIYITKVNGRWTIHSIEIHIH | 1.72 |
| DQREETTNRALHEFIENLITGDEHELLRLLDPNTKMIWNGRENHGWKRAKTVLKEFLERIDVFKDHKLRNMELQGNKAEVEGQVIFEIDGKEVRHDLSLIFLKVDGKWMIESIEIR | 1.34 |
| DQRERDQHIALEIWLLVLETGDERYVRRYADPRMRIEVGDKEIHGREDALEFRTEELRHMRLRDFRNKSFTVIDGRVDFYGHLLIEVDGRSQIFDSRLIILKVNGRWFLESEIRH | 1.43 |

| Sequence | protease stability score |
| --- | --- |
| DRDDEMTERALKEHIKNFRTGDFDKLLELADPNVRVDIDGREIHGRENFVKLVLKLMDDLGMKPEDVWVEHVNVFNGKVHMRIVLVTFYGDKRHINDTNVIATKFDGRWILKDVTMV | 1.08 |
| DRDEQMLRTYLHRMYESIRTGDEDSFKRLFDPNTRLHFENHHEHGWELLLRLMLRYANQADHFKLEIEDVTVQGDKAILRVHITVHVDGRDVSRSTVLYTTKVDGQWHFETVREK | 1.48 |
| DRDQHQAEKAFKLLVDILQTGDEEEIYKMADPHMQIDFDGRLHHGRDEFVKLVSETIRKFKNIRVEIHHIEVFDGRMHTDSRIHVGDKEWTIDIHIQKVNGKWKLKHVRVD | 0.945 |
| DREEEDYRRAWEHLHKDWKTGNEEHMERNADPNVRVEINGVERVGRELFVELMRHLVRHIRIEHVHVERSDIVNGVIILDMIVTGRIGDKSEIERVEVHTLKIDGRWLLTEVRFK | 0.663 |
| DREEEELKRIMHLFINFVETGDWELILKLMDPNVKMQIDFNGKIFRNHGRDALEYTIRLMGIDHIEIHHQDVIDGKLHIDVTVHIDGQDLRVHIHVIVIDGRIREVRHRTH | 1.23 |
| DREEEEVRRARKLWVDWAETGDEESIFKNADPRTRVDINGKILHGMEIYKKESEKLGIDNIEFRVDDVRVFDGRLEMDGELIVNGRSIRVHIYSRKIDGRWVLTSINFI | 0.872 |
| DREEEHTRTLAKELFEIFLTGDFDRFSELADPNTRLRIIINGVEFRDHGMEFWQWWVDEIRIHSYRMRDMRVFNGQAILLSTSDVEFNGRRHETTVEFVLVIVNGRIKSVTIIVR | 1.69 |
| DREEEKLLHAIKLLLHNWMTGDEDSEIDLMDPNARIVWNGVELHGMTEVRRFLHEYHRRFDVFTHTHIDHYRVIGDKAESHIRLEGSVDGRTIKHQTFILMSKYNGKWTNQTLTFE | 1.13 |
| DREEHELLHAIERWLKAEETGDEHELKKLADPHTRTHIRIGDKHIERHGREDMIKVFRELGFKHHHMRSIEIQGDYVHVRGENRFDGQHITLILIFHKFDGRWILREVEVHIR | 1.41 |
| DREEKQAEEVATEIIRALLTGDEKWLLHLIDPNVRWIMDVNGKELTLHGWHELIKKFRDDFRHLGVERFHVHVKDWDIQGDKMHLRVTFHIDGKTFDYELIIIVINGRITSMEVREH | 2 |
| DREELLMLFLKSWLTGDEHILKELLDPHVRMDVDGVEQHGRDVLLHLLHHLSRYMGVDHHRIERFEVQGDKIFINLRIHWNGVESELEIILFVIDGKIKEVEIRSRDEDHKRMVKESWR | 1.19 |
| DREENEIREFIEKLVDAHLTGNFELMDELADPNVRIEIGDKRYHGREEYLRLMHELRIHHVEIDHIEWYNGQVHMHGTVDGVVDGRRHRIHTEMTVEKVNGRWILTEERQL | 1.69 |
| DREERDTREALRILHEISRTGDEELLDRQMDPDVKIDFENHEFHGREEASTLIHEIYQKWGLSNVEMDIKRVRTVGEKVDIDGRLHFNGVTRDIRLINLKVNGKWFIHSIIFR | 1.2 |
| DREHDELRKTWEIYSQALSTGDEDELNKLADPNTRLDIDGKELHGMEDVHRHLHHNLRRVDHIELRIHEIRYQGDFAHVDGEVIIVYDGVKKSRRVHLILTKINGRWILTSVEFR | 1.28 |
| DREHREREELLNETNKAIATGDEETLRRLFDPNVQIEQGEYHHHGWEWVKKLMEEMRIEVEHVHDRRVDMFENHVRVDTHVHLRFIIGDKIFHVNLRQEIVMHKVNGVWIFKSFKYH | 1.4 |
| DREKEFVKEFFTMLHNVLHTGDFKLFEKMLDPRYRVEIGDKEAHGREEVLRWFHEYMRIAGIDHIELHLHNFDYQGDKVRMDTIVILIQGDKTFHLDVRIVVKKIDGQWINQTERIH | 1.42 |
| DREKKEAEQLIRLINRYIQTGDEHSLSRLMDPHVLLQVGDKKDIGWEIIINKIKEMWEKFKGARFNLEMRDIHLQGDFAEIDVEFEILVNGQFDTLKTRFIIFKIDGRWVIRSLSLE | 2.33 |
| DRERLADELRRRLEKVMTTGDPTELDKLMDPNARILYGDQKFHGREHVKEFAKTLNDQYDHVTIRLVSYDIKNGEIHIVVDVVFRHNGQTRTKRINFVARVHGDKVKIESINIP | 1.48 |
| DRERRHEEQLYRDLIHAWFTGDEEWLRKYADPHVRVEIGDKLRHGMEWLAKMREDVHRHLGIDHIHIHDHYFFDGRVHMDFRINIGDKHHNLHLHIVNVDGKVRSFRFEIH | 1.09 |
| DRHDKELERFTSDWLTSWHTGDFHRILELLDPDVRYIYGDKEWHGRENVHRAIKELLERLGIDHLHLQRVEIQGEKFKIQTQVHVGDKTINLIIHILVVDGRVREVNMDEK | 1.33 |
| DRHEELNKEIAEELVHWHRTGDWEEIQRNMDPNVRMEINGVENVGRETMAEILHEWLSRIKGLRVEIKHVEIIGDKVHIHGRININGRERNTHIDLHVVNGQMHELIIKVE | 0.279 |
| DRHEETDRRAVKILLEVIRTGDFETFYRLMDPHARYEYGEKELHGRDKSLKLLEELLRRFGHDKVEVHLKTYSAIDGRMEIHSVVNYNGREHNLHIESDKVNGRWEIRDIHVL | 1.09 |
| DRHEKIALEMARIILELLYTGDEDTFKHLADPNVKLHLDINGRHFEHHGREEHEKWSRELERHMRITDIKIDDEKVQGDWVHIDSTIVMRIGDKSSIHKMHFIFQIVDGRIKNMEVVIK | 1.38 |
| DRHERKKVAKDFNEALETNDHEQLMEQMDPNARIKYGDKHYHGREDLRRFWKKLVDSVDHITVDKMQVRGEEVVVLAKAESNGRNETFRLVMEFHNGRIKFVRKDTP | 1.05 |
| DRIEEEFEFALRHLIHNWVTGDETRLQKLADPNVRTVFEGREHHGRESFTELVHEIRFHDFRLRDYKIQGNKIVVDGEFDVDINGVRRIIRVELEIIKINGRWYIHSISFL | 0.203 |

— the NTF2 design screens of Basanta et al. (2020)
